# Test results as given in PMC10013841.
# Legend:
# [1] = target: SARS-CoV-2 Spike glycoprotein (WH-1), trimeric, HEK293-produced (S1+S2) (SARS-CoV-2) (UniProt P0DTC2); assay: ELISA
# [2] = target: baculovirus-produced trimeric Spike (SARS-CoV-2) (UniProt P0DTC2); assay: ITC
# [3] = target: SARS-CoV-2 Spike glycoprotein (Omicron), trimeric, HEK293-produced (SARS-CoV-2) (UniProt P0DTC2); assay: ITC
# [4] = target: SARS-CoV-2 Spike glycoprotein (WH-1), trimeric, HEK293-produced (S1+S2) (SARS-CoV-2) (UniProt P0DTC2); assay: ITC
# Sequence of cyanovirin-N (P81180 whole entry): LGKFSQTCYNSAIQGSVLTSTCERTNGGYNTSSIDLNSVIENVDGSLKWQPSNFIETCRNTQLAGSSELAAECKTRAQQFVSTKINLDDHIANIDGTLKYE
substance,measurement,setting,value
cyanovirin-N (from UniProt P81180 1-101) (natural protein),EC50,[1],0.0029 µM
same,Kd,[2],0.0134 µM
same,stoichiometry N (CV-N per Spike monomer),[2],2.4
same,Kd,[3],0.0154 µM
same,stoichiometry N (CV-N per Spike monomer),[3],2
same,Kd,[4],0.0281 µM
same,stoichiometry N (CV-N per Spike monomer),[4],2
